# Reference: patent US20180340025A1 (Novartis, published 2018)
# Substitutions are numbered along the chain they refer to. Names may count otherwise.
# T1: human LAG-3 expressed on cells (human, UniProt P18627 23-525)
# T1 construct: whole, on cells; Treated as one protein; the host cell is named under assay; also called LAG-3-expressing CHO cells; LAG-3-transfected CHO cells
# T1 sequence (looked up): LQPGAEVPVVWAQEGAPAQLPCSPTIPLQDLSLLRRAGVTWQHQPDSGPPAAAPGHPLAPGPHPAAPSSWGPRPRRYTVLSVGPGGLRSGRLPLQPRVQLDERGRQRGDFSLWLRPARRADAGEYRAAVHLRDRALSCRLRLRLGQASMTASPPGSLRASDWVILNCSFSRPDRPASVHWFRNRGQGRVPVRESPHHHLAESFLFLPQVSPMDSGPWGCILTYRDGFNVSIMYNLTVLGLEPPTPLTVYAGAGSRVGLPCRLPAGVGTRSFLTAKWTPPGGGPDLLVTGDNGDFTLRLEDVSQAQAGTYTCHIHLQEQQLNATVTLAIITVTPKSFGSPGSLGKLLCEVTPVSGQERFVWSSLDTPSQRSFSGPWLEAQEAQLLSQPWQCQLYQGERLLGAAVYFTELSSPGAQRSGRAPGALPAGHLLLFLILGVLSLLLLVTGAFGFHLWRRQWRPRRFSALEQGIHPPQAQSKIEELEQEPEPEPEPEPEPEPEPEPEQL
# B1: BAP050-hum03 (antibody, human IgG4 S228P, kappa)
# heavy: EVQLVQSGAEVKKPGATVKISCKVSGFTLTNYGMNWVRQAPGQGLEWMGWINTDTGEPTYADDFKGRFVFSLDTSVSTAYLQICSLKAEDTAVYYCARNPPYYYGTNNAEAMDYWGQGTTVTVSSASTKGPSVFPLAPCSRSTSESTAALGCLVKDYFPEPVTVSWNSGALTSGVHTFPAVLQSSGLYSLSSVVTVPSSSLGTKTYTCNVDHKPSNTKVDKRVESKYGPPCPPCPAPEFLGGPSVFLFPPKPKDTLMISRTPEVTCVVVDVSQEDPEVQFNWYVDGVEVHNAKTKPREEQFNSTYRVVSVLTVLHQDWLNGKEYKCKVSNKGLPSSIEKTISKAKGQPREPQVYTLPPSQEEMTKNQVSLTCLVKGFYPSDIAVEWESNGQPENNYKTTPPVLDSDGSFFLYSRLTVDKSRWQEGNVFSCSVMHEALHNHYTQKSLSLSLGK
# light: EIVLTQSPATLPVTLGQPASISCSSSQDISNYLNWYQQKPGQAPRLLIYYTSTLHLGVPSRFSGSGSGTDFTFTISSLEAEDAATYYCQQYYNLPWTFGQGTKVEIKRTVAAPSVFIFPPSDEQLKSGTASVVCLLNNFYPREAKVQWKVDNALQSGNSQESVTEQDSKDSTYSLSSTLTLSKADYEKHKVYACEVTHQGLSSPVTKSFNRGEC
# notes: humanized IgG4(S228P)/kappa, transient CHO supernatant
# B2: BAP050-hum20 (antibody, human IgG4 S228P, kappa, V domains shown)
# VH: QVQLVQSGAEVKKPGASVKVSCKASGFTLTNYGMNWVRQARGQRLEWIGWINTDTGEPTYADDFKGRFVFSLDTSVSTAYLQICSLKAEDTAVYYCARNPPYYYGTNNAEAMDYWGQGTTVTVSS
# VL: DIVMTQTPLSLPVTPGEPASISCSSSQDISNYLNWYQQKPGQAPRLLIYYTSTLHLGIPDRFSGSGSGTDFTLTISRLEPEDFAVYYCQQYYNLPWTFGQGTKVEIKR
# notes: as for B1
# B3: BAP050-hum11 (antibody, human IgG4 S228P, kappa, V domains shown)
# VH: B2 VH
# VL: DIQMTQSPSSLSASVGDRVTITCSSSQDISNYLNWYLQKPGQSPQLLIYYTSTLHLGVPSRFSGSGSGTEFTLTISSLQPDDFATYYCQQYYNLPWTFGQGTKVEIKR
# notes: humanized IgG4(S228P)/kappa, transient CHO supernatant; also called humanized clone No. 11
# B4: BAP050-hum06 (antibody, human IgG4 S228P, kappa, V domains shown)
# VH: B2 VH with Q1E, S17T, V20I, A24V, R41P, R44G, I48M
# VL: B2 VL with I58V, D60S, D70E, R77S, E79Q, E81D, V85T
# notes: as for B1
# B5: BAP050-hum17 (antibody, human IgG4 S228P, kappa, V domains shown)
# VH: B2 VH with A9S, V11L, R41P, R44G, I48M, C84S, S85T, V93T, Y95F
# VL: B3 VL with L37Q, Q42K, S43A, Q45K, E70D, L73F, D81E, F83I
# notes: as for B1
# B6: BAP050-hum10 (antibody, human IgG4 S228P, kappa, V domains shown)
# VH: B2 VH
# VL: EIVLTQSPATLPVTLGQPASISCSSSQDISNYLNWYQQKPGQAPRLLIYYTSTLHLGVPSRFSGSGSGTDFTFTISSLEAEDAATYYCQQYYNLPWTFGQGTKVEIKR
# notes: as for B1
# B7: BAP050-hum13 (antibody, human IgG4 S228P, kappa, V domains shown)
# VH: B2 VH with R41P, R44G, I48M
# VL: DIQMTQSPSSLSASVGDRVTITCSSSQDISNYLNWYQQKPGKAPKLLIYYTSTLHLGIPPRFSGSGYGTDFTLTINNIESEDAAYYFCQQYYNLPWTFGQGTKVEIKR
# notes: humanized IgG4(S228P)/kappa, transient CHO supernatant; also called humanized clone No. 13
# B8: BAP050-hum12 (antibody, human IgG4 S228P, kappa, V domains shown)
# VH: B2 VH
# VL: EIVLTQSPDFQSVTPKEKVTITCSSSQDISNYLNWYQQKPGQAPRLLIYYTSTLHLGVPSRFSGSGSGTDFTLTISSLQPEDFATYYCQQYYNLPWTFGQGTKVEIKR
# notes: humanized IgG4(S228P)/kappa, transient CHO supernatant; also called humanized clone No. 12
# B9: BAP050-hum09 (antibody, human IgG4 S228P, kappa, V domains shown)
# VH: B2 VH
# VL: B7 VL
# notes: humanized IgG4(S228P)/kappa, transient CHO supernatant; also called humanized clone No. 09
# B10: BAP050-hum07 (antibody, human IgG4 S228P, kappa, V domains shown)
# VH: B2 VH with Q1E, S17T, V20I, A24V, R41P, R44G, I48M
# VL: B3 VL
# notes: as for B1
# B11: BAP050-hum05 (antibody, human IgG4 S228P, kappa)
# heavy: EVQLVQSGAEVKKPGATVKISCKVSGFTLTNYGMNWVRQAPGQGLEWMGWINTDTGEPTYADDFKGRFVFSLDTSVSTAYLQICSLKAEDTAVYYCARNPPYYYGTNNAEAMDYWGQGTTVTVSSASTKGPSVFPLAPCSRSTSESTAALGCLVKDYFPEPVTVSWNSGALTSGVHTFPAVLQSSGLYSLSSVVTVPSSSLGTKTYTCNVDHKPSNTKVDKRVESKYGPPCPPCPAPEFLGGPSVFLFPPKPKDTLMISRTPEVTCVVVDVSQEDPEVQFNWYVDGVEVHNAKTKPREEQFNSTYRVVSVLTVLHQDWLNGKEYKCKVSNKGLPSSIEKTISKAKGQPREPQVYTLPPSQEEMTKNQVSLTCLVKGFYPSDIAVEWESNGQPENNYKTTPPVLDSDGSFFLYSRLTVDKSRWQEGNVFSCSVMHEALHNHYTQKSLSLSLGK
# light: B1 light with P12S, V13L, T14S, L15P, Q17E, P18R, S20T, I21L, Q42K, R45K
# notes: humanized IgG4(S228P)/kappa, transient CHO supernatant; also called humanized clone No. 05
# B12: BAP050-hum02 (antibody, human IgG4 S228P, kappa, V domains shown)
# VH: B2 VH with Q1E, S17T, V20I, A24V, R41P, R44G, I48M
# VL: B7 VL
# notes: humanized IgG4(S228P)/kappa, transient CHO supernatant; also called humanized clone No. 02
# B13: BAP050-hum04 (antibody, human IgG4 S228P, kappa, V domains shown)
# VH: B2 VH with Q1E, S17T, V20I, A24V, R41P, R44G, I48M
# VL: B3 VL with V58I, S60D, E70D, S77R, Q79E, D81E, T85V
# notes: as for B1
# B14: BAP050-hum19 (antibody, human IgG4 S228P, kappa)
# heavy: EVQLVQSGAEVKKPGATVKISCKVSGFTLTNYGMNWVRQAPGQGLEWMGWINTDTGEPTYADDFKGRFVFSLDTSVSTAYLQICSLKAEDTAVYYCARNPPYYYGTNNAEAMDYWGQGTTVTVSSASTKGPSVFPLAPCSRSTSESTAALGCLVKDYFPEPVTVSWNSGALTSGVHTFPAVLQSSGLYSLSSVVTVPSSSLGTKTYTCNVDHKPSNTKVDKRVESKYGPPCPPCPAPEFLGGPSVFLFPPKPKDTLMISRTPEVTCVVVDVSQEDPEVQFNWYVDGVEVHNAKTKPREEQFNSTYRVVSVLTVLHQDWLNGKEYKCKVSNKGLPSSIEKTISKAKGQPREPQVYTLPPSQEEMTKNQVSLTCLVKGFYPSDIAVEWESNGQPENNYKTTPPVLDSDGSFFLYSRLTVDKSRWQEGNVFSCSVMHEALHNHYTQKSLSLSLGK
# light: EIVLTQSPDFQSVTPKEKVTITCSSSQDISNYLNWYQQKPGQAPRLLIYYTSTLHLGVPSRFSGSGSGTDFTFTISSLEAEDAATYYCQQYYNLPWTFGQGTKVEIKRTVAAPSVFIFPPSDEQLKSGTASVVCLLNNFYPREAKVQWKVDNALQSGNSQESVTEQDSKDSTYSLSSTLTLSKADYEKHKVYACEVTHQGLSSPVTKSFNRGEC
# notes: as for B1
# B15: BAP050-hum08 (antibody, human IgG4 S228P, kappa)
# heavy: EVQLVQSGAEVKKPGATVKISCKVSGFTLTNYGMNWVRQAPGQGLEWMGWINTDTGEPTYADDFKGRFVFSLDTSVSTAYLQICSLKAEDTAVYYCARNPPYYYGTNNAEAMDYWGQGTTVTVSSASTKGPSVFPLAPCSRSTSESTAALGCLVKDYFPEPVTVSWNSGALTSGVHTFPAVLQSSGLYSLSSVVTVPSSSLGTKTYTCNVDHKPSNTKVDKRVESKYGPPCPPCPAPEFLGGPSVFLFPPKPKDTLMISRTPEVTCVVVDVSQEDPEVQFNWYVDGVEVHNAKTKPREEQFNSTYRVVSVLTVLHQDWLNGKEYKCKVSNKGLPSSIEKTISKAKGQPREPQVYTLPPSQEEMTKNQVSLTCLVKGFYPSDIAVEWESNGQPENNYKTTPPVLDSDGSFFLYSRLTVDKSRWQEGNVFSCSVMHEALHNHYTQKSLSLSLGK
# light: B14 light with F73L, E79Q, A80P, A83F
# notes: as for B1
# B16: BAP050-hum16 (antibody, human IgG4 S228P, kappa, V domains shown)
# VH: EVQLVQSGAEVKKPGESLRISCKGSGFTLTNYGMNWVRQATGQGLEWMGWINTDTGEPTYADDFKGRVTISADKSISTAYLQWSSLKASDTAMYYCARNPPYYYGTNNAEAMDYWGQGTTVTVSS
# VL: B8 VL
# notes: as for B1
# B17: BAP050-hum14 (antibody, human IgG4 S228P, kappa, V domains shown)
# VH: EVQLVQSGAEVKKPGATVKISCKVSGFTLTNYGMNWIRQSPSRGLEWLGWINTDTGEPTYADDFKGRFVFSLDTSVSTAYLQICSLKAEDTAVYYCARNPPYYYGTNNAEAMDYWGQGTTVTVSS
# VL: B6 VL
# notes: as for B1
# B18: BAP050-hum15 (antibody, human IgG4 S228P, kappa, V domains shown)
# VH: B17 VH
# VL: B8 VL
# notes: as for B1
# B19: BAP050-hum02-Ser (antibody, human IgG4 S228P, kappa, V domains shown)
# VH: B17 VH with I37V, S40A, S42G, R43Q, L48M, C84S
# VL: B7 VL
# notes: C84S in VHFW3 of BAP050-hum02; IgG4(S228P)/kappa; also called clone No. 2S; huBAP050(Ser) clone
# B20: BAP050-hum13-Ser (antibody, human IgG4 S228P, kappa, V domains shown)
# VH: B2 VH with R41P, R44G, I48M, C84S
# VL: B7 VL
# notes: C84S in VHFW3 of BAP050-hum13; IgG4(S228P)/kappa; also called clone No. 13S (printed 135); huBAP050(Ser) clone
# B21: BAP050-hum09-Ser (antibody, human IgG4 S228P, kappa, V domains shown)
# VH: B2 VH with C84S
# VL: B7 VL
# notes: C84S in VHFW3 of BAP050-hum09; IgG4(S228P)/kappa; also called clone No. 9S; huBAP050(Ser) clone
# Biological target: T1, human LAG-3 expressed on cells
# Assay: rank of the clone among the humanized clones by the FACS binding data on LAG-3-expressing cells
row,Binder,"Ranking, Binding data"
1,B1,7
2,B2,9
3,B3,2
4,B4,9
5,B5,9
6,B6,9
7,B7,9
8,B8,3
9,B9,8
10,B10,8
11,B11,6
12,B12,5
13,B13,8
14,B14,9
15,B15,4
16,B16,20
17,B17,9
18,B18,20

# Biological target: T1, human LAG-3 expressed on cells
# Assay: FACS competition: serial dilutions of the test mAb against a constant concentration of FITC-labeled murine BAP050 on LAG-3-expressing CHO cells; MFI of bound labelled mAb
row,Binder,binding result
1,B19,binds
2,B20,binds
3,B21,binds

# Biological target: T1, human LAG-3 expressed on cells
# Assay: rank of the clone by the competition binding data (test mAb against FITC-labeled murine BAP050 on LAG-3-expressing CHO cells), curve position relative to the chimeric mAb in two experiments
# Description: Incubations with the mAb mixtures having different concentration ratios of test mAb to labeled mAb was at 4° C. for 30 min. […] The experiment was performed twice.
# Such a ranking system was used in FIG. 6.
row,Binder,"Ranking, Compet. data"
1,B1,1
2,B2,3
3,B3,2
4,B4,1
5,B5,> 3
6,B6,2
7,B7,3
8,B8,2
9,B9,2
10,B10,> 3
11,B11,> 3
12,B12,1
13,B13,2
14,B14,> 3
15,B15,> 3
16,B16,20
17,B17,> 3
18,B18,20
